Positions count from the first letter of the chain named. In names and notes the source's numbering stands.

T1: human M-CSF (human, UniProt P09603 33-255, limits assumed)
T1 construct: also called M-CSF (human); CSF-1
T1 sequence: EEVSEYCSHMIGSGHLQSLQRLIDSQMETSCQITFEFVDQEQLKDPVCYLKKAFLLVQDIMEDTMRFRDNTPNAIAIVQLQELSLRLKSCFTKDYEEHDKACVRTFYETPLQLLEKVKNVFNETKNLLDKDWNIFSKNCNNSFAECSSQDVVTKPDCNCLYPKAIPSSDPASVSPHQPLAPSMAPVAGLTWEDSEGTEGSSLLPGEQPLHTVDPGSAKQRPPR

T2: Recombinant cynomolgus monkey sgM-CSF (cynomolgus (Macaca fascicularis), UniProt P09603 33-255 (human entry), limits assumed)
T2 construct: used also where only 'cynomolgus M-CSF' is printed (ELISA result, SET); also called cynomolgus sgM-CSF; cyno sgM-CSF
T2 chain: T1 sequence with V186M, E192D

T3: Recombinant human sgM-CSF (human, UniProt P09603 33-255)
T3 sequence: T1 sequence

T4: human cell-surface M-CSF on stably transfected CHO cells (human, UniProt P09603 33-554)
T4 construct: also called csM-CSF
T4 sequence: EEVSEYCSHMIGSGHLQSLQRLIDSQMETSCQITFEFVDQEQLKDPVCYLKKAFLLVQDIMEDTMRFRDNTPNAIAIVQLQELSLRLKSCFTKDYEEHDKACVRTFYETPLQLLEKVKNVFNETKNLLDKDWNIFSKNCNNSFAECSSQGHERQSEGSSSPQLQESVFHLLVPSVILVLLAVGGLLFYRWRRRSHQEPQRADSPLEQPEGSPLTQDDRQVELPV

B1: Madeleine (format not stated) (antibody, V domains shown)
VH: QVQLQQSGPGLVKPSQTLSLTCAISGDSVSSNSAAWNWIRQSPSRGLEWLGRTYYRSKWKKEYAQSVKSRITINPDTSKNQFSLQLNSVTPEDTAVYYCARDRYYYSAFDYWGQGTLVTVSS
VL: QSALTQPASVSGSPGQSITISCTGTSSDVGGYNSVSWYQQHPGKAPKLMIYAVSNRPSGVSNRFSGSKSGNTASLTISGLQAEDEADYYCASYDERFTRVFGGGTKLTVLG
B2: Blanche (format not stated) (antibody, V domains shown)
VH: B1 VH with K61H, Q65M
VL: B1 VL with Q1D, S2I
B3: Caline (format not stated) (antibody, V domains shown)
VH: B1 VH with K61H, Q65M
VL: B1 VL
B4: Meriem (format not stated) (antibody, V domains shown)
VH: B1 VH with S31T, N32S
VL: B1 VL with M49I
B5: Celine (format not stated) (antibody, V domains shown)
VH: B1 VH with S31T, N32S, K61H, Q65V
VL: B1 VL with M49I
B6: Laurine (format not stated) (antibody, V domains shown)
VH: B1 VH
VL: B1 VL with Q1D, S2I
B7: Maelle (format not stated) (antibody, V domains shown)
VH: B1 VH with D27E, S31T, N32S
VL: B1 VL with M49I
B8: Romaine (format not stated) (antibody, V domains shown)
VH: EVQLVESGGGLVKPGGSLRLSCAASGFTFSIYAMSWVRQAPGKGLEWVGRIKSNADGGTTEYAAPVKGRFTISRDDSKNTLYLQMNSLKTEDTAVYYCARMRYYSDLYFDPWGQGTLVTVSS
VL: DIELTQPPSVSVSPGQTASITCSGDAIGSKYVHWYQQKPGQAPVLVISKDNKRPSGIPERFSGSNSGNTATLTISGTQAEDEADYYCQTATVSSYWWVFGGGTKLTVLG
B9: Satine (format not stated) (antibody, V domains shown)
VH: B8 VH
VL: SYELTQPPSVSVSPGQTASITCSGDKLGQKYVSWYQQKPGQSPVLVISQDRKRPSGIPERFSGSNSGNTATLTISGTQAEDEADYYCQTWTHLQWVFGGGTKLTVLG
B10: Servane (format not stated) (antibody, V domains shown)
VH: B8 VH with I31T, M34I, R50F, N54K, A55H, D56N, G57S
VL: B9 VL
B11: 8.10.3F, IgG2 (antibody, V domains shown)
VH: EVQLVESGGGLVQPGGSLRLSCAASGFTFSSFSMTWVRQAPGKGLEWVSYISSRSSTISYADSVKGRFTISRDNAKNSLYLQMNSLRDEDTAVYYCARDPLLAGATFFDYWGQGTLVTVSS
VL: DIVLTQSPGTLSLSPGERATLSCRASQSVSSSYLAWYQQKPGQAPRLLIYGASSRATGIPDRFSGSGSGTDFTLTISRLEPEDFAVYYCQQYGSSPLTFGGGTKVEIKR
notes: tested as IgG2; also called 8.10.F3
B12: 8.10.3F, IgG1_D265A (antibody, V domains shown)
VH: B11 VH
VL: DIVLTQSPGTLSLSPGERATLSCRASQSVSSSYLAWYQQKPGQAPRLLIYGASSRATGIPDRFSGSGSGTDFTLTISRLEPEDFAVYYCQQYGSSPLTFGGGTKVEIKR
notes: Prior art antibody; tested as IgG1 with D265A in the Fc (EU index); also called 8.10.F3
B13: HeRX1-10G1, IgG1 (antibody, V domains shown)
VH: QVQLQESGPGLVKPSQTLSLTCTVSDYSITSDYAWNWIRQFPGKGLEWMGYISYSGSTSYNPSLKSRITISRDTSKNQFSLQLNSVTAADTAVYYCASFDYAHAMDYWGQGTTVTVSS
VL: DIVLTQSPAFLSVTPGEKVTFTCQASQSIGTSIHWYQQKTDQAPKLLIKYASESISGIPSRFSGSGSGTDFTLTISSVEAEDAADYYCQQINSWPTTFGGGTKLEIKR
notes: tested as IgG1
B14: HeRX1-10G1, IgG1_D265A (antibody, V domains shown)
VH: B13 VH
VL: B13 VL
notes: Prior art antibody; tested as IgG1 with D265A in the Fc (EU index)
B15: Blanche, Fab (Fab, V domains shown)
VH: B1 VH with K61H, Q65M
VL: B1 VL with Q1D, S2I
B16: Caline, Fab (Fab, V domains shown)
VH: B1 VH with K61H, Q65M
VL: B1 VL
B17: 8.10.3F, Fab (Fab, V domains shown)
VH: B11 VH
VL: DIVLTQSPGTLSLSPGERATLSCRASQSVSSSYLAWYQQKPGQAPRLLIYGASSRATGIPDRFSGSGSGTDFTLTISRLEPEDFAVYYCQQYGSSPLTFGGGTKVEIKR
notes: Prior art antibody; also called 8.10.F3
B18: HeRX1-10G1, Fab (Fab, V domains shown)
VH: B13 VH
VL: B13 VL
notes: Prior art antibody
B19: Satine, Fab (Fab, V domains shown)
VH: B8 VH
VL: B9 VL

The target in one experiment is T1, human M-CSF. Put plainly: ELISA. The procedure:
(§1) BSA was used as a negative control substrate.
(§2) After blocking of plates with 5% skim milk powder in PBS, Fab-containing E. coli lysates, IgG-containing cell culture supernatants or purified IgG or Fab proteins were added. Binding of Fabs or IgGs was detected by F(ab)₂ specific goat anti-human IgG conjugated to alkaline phosphatase (Dianova Cat# 109-055-097; diluted 1:5000) using Attophos fluorescence substrate (Roche, #11681982001). Fluorescence emission at 535 nm was recorded with excitation at 430 nm.
(In an ELISA, binding on a coated surface is turned into a signal by an enzyme label.)
Regarding B1, the ELISA fluorescence units is > 35000 units.

For the molecule B2, the ELISA fluorescence units is > 35000 units.

For B3, the ELISA fluorescence units is > 35000 units.

Take B4: the ELISA fluorescence units was > 35000 units.

For B5, the ELISA fluorescence units is > 35000 units.

As for B6, the ELISA fluorescence units was > 35000 units.

Consider B7, for which the ELISA fluorescence units is > 35000 units.

On to B8, for which the ELISA fluorescence units is > 35000 units.

Take B9: the ELISA fluorescence units was > 35000 units.

On to B10, for which the ELISA fluorescence units was > 35000 units.

Another experiment deals with T2, Recombinant cynomolgus monkey sgM-CSF. Put plainly: ELISA. The procedure: as §1, §2
Regarding B1, the ELISA fluorescence units was > 35000 units.

With B2, the ELISA fluorescence units is > 35000 units.

For B3, the ELISA fluorescence units was > 35000 units.

Regarding B4, the ELISA fluorescence units is > 35000 units.

On to B5, for which the ELISA fluorescence units is > 35000 units.

Consider B6, for which the ELISA fluorescence units is > 35000 units.

As to B7, the ELISA fluorescence units was > 35000 units.

For the molecule B8, the ELISA fluorescence units is > 35000 units.

In the case of B9, the ELISA fluorescence units was > 35000 units.

As for B10, the ELISA fluorescence units is > 35000 units.

The next experiment concerns the target T3, Recombinant human sgM-CSF. The experiment can be described thus: cell-based or functional assay.
For the molecule B11, the “IC50, inhibition of M-NFS-60 proliferation induced by recombinant human M-CSF (9.5 pM)” value came out at 71.1 pM.

Turning to B12, the “IC50, inhibition of M-NFS-60 proliferation induced by recombinant human M-CSF (9.5 pM)” value worked out at 14.9 pM.

For the molecule B13, the “IC50, inhibition of M-NFS-60 proliferation induced by recombinant human M-CSF (9.5 pM)” value amounted to 3.6 pM.

In the case of B14, the “IC50, inhibition of M-NFS-60 proliferation induced by recombinant human M-CSF (9.5 pM)” value worked out at 3 pM.

A further experiment addresses T2, Recombinant cynomolgus monkey sgM-CSF. Put plainly: cell-based or functional assay.
With B11, the “IC50, inhibition of M-NFS-60 proliferation induced by recombinant cynomolgus M-CSF (9.5 pM)” value was 84.6 pM.

Regarding B12, the “IC50, inhibition of M-NFS-60 proliferation induced by recombinant cynomolgus M-CSF (9.5 pM)” value turned out to be 16.5 pM.

Turning to B13, the “IC50, inhibition of M-NFS-60 proliferation induced by recombinant cynomolgus M-CSF (9.5 pM)” value is 4.1 pM.

In the case of B14, the “IC50, inhibition of M-NFS-60 proliferation induced by recombinant cynomolgus M-CSF (9.5 pM)” value is 3.5 pM.

The target in a further experiment is T1, human M-CSF. The experiment can be described thus: soluble equilibrium titration (SET), Fab, monovalent. As for the experimental part: (§3) The monovalent affinity of the antibodies of the present disclosure was determined by soluble equilibrium titration (Haenel et al. (2005) Anal Biochem 339, 182-4).
By Kd is commonly meant the free concentration of one partner at which half of the binding sites on the other are occupied at equilibrium, for simple one-to-one binding. The molecule B15 returned a Kd of 0.096 nM.

B16 yielded a Kd of 0.014 nM.

B17 came in with a Kd of 0.038 nM.

For B18, the Kd was > 1 nM.

B19: the Kd was < 0.002 nM.

The next experiment has as its target T2, Recombinant cynomolgus monkey sgM-CSF. The description is as above. As for the experimental part:
as §3
Regarding B15, the Kd turned out to be 0.13 nM.

On to B16, for which the Kd came to 0.016 nM.

The next experiment deals with T4, human cell-surface M-CSF on stably …. Put plainly: FACS, CHO cells stably transfected with M-CSF (n = 3). In general terms: In flow cytometry, cells or beads pass a laser one at a time.
A word on the EC50: it is the concentration giving half of the maximal effect. With B11, the EC50 is 23.2 nM.

For B12, the EC50 worked out at 8.9 nM.

On to B13, for which the 50% effective concentration (EC50) was found to be 12.6 nM.

Molecule B14 showed an EC50 of 8.9 nM.

The target in the next experiment is T3, Recombinant human sgM-CSF. Put plainly: MSD receptor binding inhibition: 12.5 pM human sgM-CSF preincubated with antibody, binding to coated human CSF1-R-Fc. As for the experimental part:
(§4) Complexes were then transferred to 384 well MSD plates coated with 2 μg/ml of the corresponding receptor. Plates were then washed and incubated with the streptavidin/ECL conjugate for 2 h with shaking at room temperature. 35 μl MSD read buffer T with surfactant was then added per well and subsequently measured using MSD Sector Imager 6000.
What is called IC50 is the concentration at which inhibition is half-maximal. As to B11, the IC50 worked out at 0.0314 nM.

In the case of B12, the IC50 came to 0.0192 nM.

Consider B13, for which the concentration for half-maximal inhibition (IC50) is 0.0265 nM.

Consider B14, for which the half-inhibitory concentration (IC50) turned out to be 0.028 nM.

For another experiment, the target named is T2, Recombinant cynomolgus monkey sgM-CSF. The experiment can be described thus: MSD receptor binding inhibition: 12.5 pM cynomolgus sgM-CSF preincubated with antibody, binding to coated human CSF1-R-Fc. The procedure: as §4
Take B11: the IC50 came to 0.0207 nM.

Take B12: the IC50 worked out at 0.0146 nM.

As to B13, the IC50 stood at 0.0276 nM.

Consider B14, for which the IC50 was 0.018 nM.
